# Results taken from article PMC3443293 (Nature structural & molecular biology, 2012).
# Positions count from the first letter of the chain named.
# B1: human nectin-4 ectodomain (D1-D3) (domain or fragment)
# chain: GELETSDVVTVVLGQDAKLPCFYRGDSGEQVGQVAWARVDAGEGAQELALLHSKYGLHVSPAYEGRVEQPPPPRNPLDGSVLLRNAVQADEGEYECRVSTFPAGSFQARLRLRVLVPPLPSLNPGPALEEGQGLTLAASCTAEGSPAPSVTWDTEVKGTTSSRSFKHSRSAAVTSEFHLVPSRSMNGQPLTCVVSHPGLLQDQRITHILHVSFLAEASVRGLEDQNLWHIGREGAMLKCLSEGQPPPSYNWTRLDGPLPSGVRVDGDTLGFPPLTTEHSGIYVCHVSNEFSSRDSQVTVDVLDPQ
# modifications: natively glycosylated
# B2: human nectin-4 D1-2 fragment (domain or fragment)
# chain: GELETSDVVTVVLGQDAKLPCFYRGDSGEQVGQVAWARVDAGEGAQELALLHSKYGLHVSPAYEGRVEQPPPPRNPLDGSVLLRNAVQADEGEYECRVSTFPAGSFQARLRLRVLVPPLPSLNPGPALEEGQGLTLAASCTAEGSPAPSVTWDTEVKGTTSSRSFKHSRSAAVTSEFHLVPSRSMNGQPLTCVVSHPGLLQDQRITHILHVS
# B3: mouse nectin-2 D1-2 fragment (domain or fragment)
# chain: QDVRVRVLPEVRGRLGGTVELPCHLLPPTTERVSQVTWQRLDGTVVAAFHPSFGVDFPNSQFSKDRLSFVRARPETNADLRDATLAFRGLRVEDEGNYTCEFATFPNGTRRGVTWLRVIAQPENHAEAQEVTIGPQSVAVARCVSTGGRPPARITWISSLGGEAKDTQEPGIQAGTVTIISRYSLVPVGRADGVKVTCRVEHESFEEPILLPVTLSVRY
# modifications: natively glycosylated (N-linked glycans)
# B4: human nectin-2 ectodomain (D1-D3) (domain or fragment)
# chain: QDVRVQVLPEVRGQLGGTVELPCHLLPPVPGLYISLVTWQRPDAPANHQNVAAFHPKMGPSFPSPKPGSERLSFVSAKQSTGQDTEAELQDATLALHGLTVEDEGNYTCEFATFPKGSVRGMTWLRVIAKPKNQAEAQKVTFSQDPTTVALCISKEGRPPARISWLSSLDWEAKETQVSGTLAGTVTVTSRFTLVPSGRADGVTVTCKVEHESFEEPALIPVTLSVRYPPEVSISGYDDNWYLGRTDATLSCDVRSNPEPTGYDWSTTSGTFPTSAVAQGSQLVIHAVDSLFNTTFVCTVTNAVGMGRAEQVIFVRETP
# modifications: natively glycosylated
# B5: mouse nectin-1 ectodomain (D1-D3) (domain or fragment)
# chain: QVVQVNDSMYGFIGTDVVLHCSFANPLPSVKITQVTWQKASNGSKQNMAIYNPTMGVSVLPPYEKRVEFLRPSFIDGTIRLSGLELEDEGMYICEFATFPTGNRESQLNLTVMAKPTNWIEGTRAVLRARKGQDDKVLVATCTSANGKPPSAVSWETRLKGEAEYQEIRNPNGTVTVISRYRLVPSREAHRQSLACIVNYHLDRFRESLTLNVQYEPEVTIEGFDGNWYLQRTDVKLTCKADANPPATEYHWTTLNGSLPKGVEAQNRTLFFRGPITYSLAGTYICEATNPIGTRSGQVEVNITEFP
# modifications: natively glycosylated
# B6: mouse nectin-4 ectodomain (D1-D3) (domain or fragment)
# chain: GELETSDVVTVVLGQDAKLPCFYRGDPDEQVGQVAWARVDPNEGIRELALLHSKYGLHVNPAYEDRVEQPPPPRDPLDGSVLLRNAVQADEGEYECRVSTFPAGSFQARMRLRVLVPPLPSLNPGPPLEEGQGLTLAASCTAEGSPAPSVTWDTEVKGTQSSRSFTHPRSAAVTSEFHLVPSRSMNGQPLTCVVSHPGLLQDRRITHTLQVAFLAEASVRGLEDQNLWQVGREGATLKCLSEGQPPPKYNWTRLDGPLPSGVRVKGDTLGFPPLTTEHSGVYVCHVSNELSSRDSQVTVEVLDPEDPG
# modifications: natively glycosylated
# B7: mouse nectin-2 ectodomain (D1-D3) (domain or fragment)
# chain: QDVRVRVLPEVRGRLGGTVELPCHLLPPTTERVSQVTWQRLDGTVVAAFHPSFGVDFPNSQFSKDRLSFVRARPETNADLRDATLAFRGLRVEDEGNYTCEFATFPNGTRRGVTWLRVIAQPENHAEAQEVTIGPQSVAVARCVSTGGRPPARITWISSLGGEAKDTQEPGIQAGTVTIISRYSLVPVGRADGVKVTCRVEHESFEEPILLPVTLSVRYPPEVSISGYDDNWYLGRSEAILTCDVRSNPEPTDYDWSTTSGVFPASAVAQGSQLLVHSVDRMVNTTFICTATNAVGTGRAEQVILVRESP
# modifications: natively glycosylated
# B8: human nectin-1 ectodomain (D1-D3) F129D (domain or fragment)
# chain: QVVQVNDSMYGFIGTDVVLHCSFANPLPSVKITQVTWQKSTNGSKQNVAIYNPSMGVSVLAPYRERVEFLRPSFTDGTIRLSRLELEDEGVYICEFATDPTGNRESQLNLTVMAKPTNWIEGTQAVLRAKKGQDDKVLVATCTSANGKPPSVVSWETRLKGEAEYQEIRNPNGTVTVISRYRLVPSREAHQQSLACIVNYHMDRFKESLTLNVQYEPEVTIEGFDGNWYLQRMDVKLTCKADANPPATEYHWTTLNGSLPKGVEAQNRTLFFKGPINYSLAGTYICEATNPIGTRSGQVEVNITEFP
# modifications: natively glycosylated
# B9: human nectin-1 ectodomain (D1-D3) (domain or fragment)
# chain: B8 chain with D99F
# modifications: natively glycosylated (N-linked glycans)
# Target: B9
# Test: AUC
row,Binder,binding result
1,B1,binds

# Target: the molecule itself
# Test: crystal structure
row,Binder,binding result
1,B2,binds

# Target: the molecule itself
# Test: AUC
Binder,Kd,stoichiometry N
B3,7.62 µM,2
B4,0.392 µM,2
B5,22.6 µM,2
B6,278 µM,2
B1,153 µM,2
B7,1.09 µM,2
B8,820 µM,2
B9,17.5 µM,2

# Target: human nectin-3 ectodomain (D1-D3) (human, UniProt Q9NQS3 58-359, natively glycosylated (N-linked glycans))
# Test: SPR
row,Binder,binding result
1,B4,binds
2,B9,binds
